Assay results: the supplement of paper PMC10567573

B1: RPAIN (parent)
chain: ISEYEKSLQFDEKCLSIMLAEWEA
B2: GALNT9 (parent)
chain: FTQSGPIVSRATGRCLEVEMSKDA

Variants of: B1
Experiment: protein stability index of a GFP-peptide fusion (GPS, HEK-293T) (PSI 1-6); higher = more stable
Details: c terminus: a fixed tail appended
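Also: lentivirally expressed fusions sorted by FACS into six bins by GFP to DsRed ratio, PSI derived from sequencing read proportions per bin multiplied by bin number.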

Variant | protein stability index
IFEYEKSLQFDEKCLSIMLAEWEA | 1.7
IIEYEKSLQFDEKCLSIMLAEWEA | 1.79
IPEYEKSLQFDEKCLSIMLAEWEA | 2.04
IEEYEKSLQFDEKCLSIMLAEWEA | 1.16
IGEYEKSLQFDEKCLSIMLAEWEA | 1.72
INEYEKSLQFDEKCLSIMLAEWEA | 2.18
IWEYEKSLQFDEKCLSIMLAEWEA | 2.59
ICEYEKSLQFDEKCLSIMLAEWEA | 1.41
IDEYEKSLQFDEKCLSIMLAEWEA | 1.97
IYEYEKSLQFDEKCLSIMLAEWEA | 2.54
IQEYEKSLQFDEKCLSIMLAEWEA | 1.81
ILEYEKSLQFDEKCLSIMLAEWEA | 2.1
IMEYEKSLQFDEKCLSIMLAEWEA | 2.15
IHEYEKSLQFDEKCLSIMLAEWEA | 1.5
IAEYEKSLQFDEKCLSIMLAEWEA | 2.2
ITEYEKSLQFDEKCLSIMLAEWEA | 1.91
ISEYKKSLQFDEKCLSIMLAEWEA | 2.81
ISEYRKSLQFDEKCLSIMLAEWEA | 1.32
ISEYMKSLQFDEKCLSIMLAEWEA | 2.08
ISEYYKSLQFDEKCLSIMLAEWEA | 2.3
ISEYPKSLQFDEKCLSIMLAEWEA | 2.33
ISEYCKSLQFDEKCLSIMLAEWEA | 2.24
ISEYNKSLQFDEKCLSIMLAEWEA | 1.51

Variant | protein stability index
ISEYDKSLQFDEKCLSIMLAEWEA | 1.55
ISEYWKSLQFDEKCLSIMLAEWEA | 1.23
ISEYLKSLQFDEKCLSIMLAEWEA | 2.02
ISEYTKSLQFDEKCLSIMLAEWEA | 1.58
ISEYIKSLQFDEKCLSIMLAEWEA | 1.75
ISEYSKSLQFDEKCLSIMLAEWEA | 1.82
ISEYQKSLQFDEKCLSIMLAEWEA | 1.92
ISEYVKSLQFDEKCLSIMLAEWEA | 2.51
ISEYEKSLEFDEKCLSIMLAEWEA | 1.78
ISEYEKSLCFDEKCLSIMLAEWEA | 1.64
ISEYEKSLAFDEKCLSIMLAEWEA | 1.76
ISEYEKSLDFDEKCLSIMLAEWEA | 2.02
ISEYEHSLQFDEKCLSIMLAEWEA | 1.97
ISEYELSLQFDEKCLSIMLAEWEA | 1.2
ISEYEGSLQFDEKCLSIMLAEWEA | 1.15
ISEYERSLQFDEKCLSIMLAEWEA | 2.39
ISEYETSLQFDEKCLSIMLAEWEA | 1.92
ISEYEQSLQFDEKCLSIMLAEWEA | 2.06
ISEYEDSLQFDEKCLSIMLAEWEA | 2.07
ISEYEWSLQFDEKCLSIMLAEWEA | 1.79
ISEYENSLQFDEKCLSIMLAEWEA | 1.91
ISEYEASLQFDEKCLSIMLAEWEA | 2.2
ISEYECSLQFDEKCLSIMLAEWEA | 2.67

Variant | protein stability index
ISEYEMSLQFDEKCLSIMLAEWEA | 1.73
ISEYEVSLQFDEKCLSIMLAEWEA | 1.16
ISEYEESLQFDEKCLSIMLAEWEA | 1.78
ISEYESSLQFDEKCLSIMLAEWEA | 1.34
ISEYEKDLQFDEKCLSIMLAEWEA | 1.93
ISEYEKLLQFDEKCLSIMLAEWEA | 1.44
ISEYEKWLQFDEKCLSIMLAEWEA | 2
ISEYEKGLQFDEKCLSIMLAEWEA | 1.67
ISEYEKRLQFDEKCLSIMLAEWEA | 1.69
ISEYEKILQFDEKCLSIMLAEWEA | 1.6
ISEYEKNLQFDEKCLSIMLAEWEA | 1.8
ISEYEKCLQFDEKCLSIMLAEWEA | 2.46
ISEYEKPLQFDEKCLSIMLAEWEA | 1.47
ISEYEKYLQFDEKCLSIMLAEWEA | 1.76
ISEYEKHLQFDEKCLSIMLAEWEA | 2.7
ISEYEKQLQFDEKCLSIMLAEWEA | 2.13
ISEYEKKLQFDEKCLSIMLAEWEA | 1.38
ISEYEKELQFDEKCLSIMLAEWEA | 1.48
ISEYEKMLQFDEKCLSIMLAEWEA | 1.56
ISEYEKFLQFDEKCLSIMLAEWEA | 2.08
ISEYEKSVQFDEKCLSIMLAEWEA | 2.22
ISEYEKSMQFDEKCLSIMLAEWEA | 2.29
ISEYEKSWQFDEKCLSIMLAEWEA | 2.9

Variant | protein stability index
ISEYEKSFQFDEKCLSIMLAEWEA | 1.9
ISEYEKSKQFDEKCLSIMLAEWEA | 2.47
ISEYEKSDQFDEKCLSIMLAEWEA | 3.69
ISEYEKSNQFDEKCLSIMLAEWEA | 2.71
ISEYEKSEQFDEKCLSIMLAEWEA | 3.45
ISEYEKSYQFDEKCLSIMLAEWEA | 2.27
ISEYEKSRQFDEKCLSIMLAEWEA | 2.38
ISEYEKSAQFDEKCLSIMLAEWEA | 2.63
ISEYEKSPQFDEKCLSIMLAEWEA | 2.97
ISEYEKSTQFDEKCLSIMLAEWEA | 3.08
ISEYEKSQQFDEKCLSIMLAEWEA | 3.1
ISEYEKSSQFDEKCLSIMLAEWEA | 2.68
ISEYEKSCQFDEKCLSIMLAEWEA | 1.96
ISEYEKSGQFDEKCLSIMLAEWEA | 3.44
ISEYEKSIQFDEKCLSIMLAEWEA | 2.79
ISEYEKSHQFDEKCLSIMLAEWEA | 2.65
ISQYEKSLQFDEKCLSIMLAEWEA | 2.05
ISDYEKSLQFDEKCLSIMLAEWEA | 1.81
ISTYEKSLQFDEKCLSIMLAEWEA | 2.91
ISHYEKSLQFDEKCLSIMLAEWEA | 1.99
ISMYEKSLQFDEKCLSIMLAEWEA | 1.82
ISWYEKSLQFDEKCLSIMLAEWEA | 3.76
ISPYEKSLQFDEKCLSIMLAEWEA | 1.42

Variant | protein stability index
ISCYEKSLQFDEKCLSIMLAEWEA | 1.44
ISNYEKSLQFDEKCLSIMLAEWEA | 3.69
ISRYEKSLQFDEKCLSIMLAEWEA | 2.4
ISYYEKSLQFDEKCLSIMLAEWEA | 3.23
ISGYEKSLQFDEKCLSIMLAEWEA | 1.41
ISKYEKSLQFDEKCLSIMLAEWEA | 2.4
ISSYEKSLQFDEKCLSIMLAEWEA | 1.68
ISAYEKSLQFDEKCLSIMLAEWEA | 2.31
ISVYEKSLQFDEKCLSIMLAEWEA | 2.93
ISLYEKSLQFDEKCLSIMLAEWEA | 1.54
ISIYEKSLQFDEKCLSIMLAEWEA | 1.74
ISEPEKSLQFDEKCLSIMLAEWEA | 1.41
ISETEKSLQFDEKCLSIMLAEWEA | 2.5
ISEDEKSLQFDEKCLSIMLAEWEA | 2.12
ISESEKSLQFDEKCLSIMLAEWEA | 1.77
ISEHEKSLQFDEKCLSIMLAEWEA | 2.06
ISEKEKSLQFDEKCLSIMLAEWEA | 2.1
ISEWEKSLQFDEKCLSIMLAEWEA | 1.92
ISEQEKSLQFDEKCLSIMLAEWEA | 1.8
ISEEEKSLQFDEKCLSIMLAEWEA | 2.13
ISEAEKSLQFDEKCLSIMLAEWEA | 2.48
ISENEKSLQFDEKCLSIMLAEWEA | 2.15
ISEMEKSLQFDEKCLSIMLAEWEA | 2.15

Variant | protein stability index
ISECEKSLQFDEKCLSIMLAEWEA | 1.75
ISEGEKSLQFDEKCLSIMLAEWEA | 1.83
ISEFEKSLQFDEKCLSIMLAEWEA | 1.86
ISELEKSLQFDEKCLSIMLAEWEA | 2.33
ISEIEKSLQFDEKCLSIMLAEWEA | 2.15
ESEYEKSLQFDEKCLSIMLAEWEA | 2.04
GSEYEKSLQFDEKCLSIMLAEWEA | 1.86
WSEYEKSLQFDEKCLSIMLAEWEA | 1.26
NSEYEKSLQFDEKCLSIMLAEWEA | 1.69
TSEYEKSLQFDEKCLSIMLAEWEA | 3.12
YSEYEKSLQFDEKCLSIMLAEWEA | 1.48
SSEYEKSLQFDEKCLSIMLAEWEA | 1.8
MSEYEKSLQFDEKCLSIMLAEWEA | 2.42
VSEYEKSLQFDEKCLSIMLAEWEA | 2.15
ASEYEKSLQFDEKCLSIMLAEWEA | 2.29
RSEYEKSLQFDEKCLSIMLAEWEA | 2.41
PSEYEKSLQFDEKCLSIMLAEWEA | 2.04
QSEYEKSLQFDEKCLSIMLAEWEA | 2.64
DSEYEKSLQFDEKCLSIMLAEWEA | 2.6
HSEYEKSLQFDEKCLSIMLAEWEA | 2.15
LSEYEKSLQFDEKCLSIMLAEWEA | 1.64
KSEYEKSLQFDEKCLSIMLAEWEA | 2.56
FSEYEKSLQFDEKCLSIMLAEWEA | 1.34

Variants of: B2
Experiment: as above
Details: c terminus: a fixed tail appended

Variant | protein stability index
FTQSGPIVSRATGRCLEVEMKKDA | 1.82
FTQSGPIVSRATGRCLEVEMVKDA | 2.05
FTQSGPIVSRATGRCLEVEMNKDA | 1.79
FTQSGPIVSRATGRCLEVEMIKDA | 1.07
FTQSGPIVSRATGRCLEVEMQKDA | 1.34
FTQSGPIVSRATGRCLEVEMLKDA | 1.74
FTQSGPIVSRATGRCLEVEMTKDA | 2.15
FTQSGPIVSRATGRCLEVEMPKDA | 2.55
FTQSGPIVSRATGRCLEVEMRKDA | 3.38
FTQSGPIVSRATGRCLEVEMSRDA | 1.32
FTQSGPIVSRATGRCLEVEMSDDA | 3.38
FTQSGPIVSRATGRCLEVEMSIDA | 1.71
FTQSGPIVSRATGRCLEVEMSHDA | 1.76
FTQSGPIVSRATGRCLEVEMSSDA | 2.12
FTQSGPIVSRATGRCLEVEMSPDA | 3.13
FTQSGPIVSRATGRCLEVEMSADA | 3.13
FTQSGPIVSRATGRCLEVEMSNDA | 2.74
FTQSGPIVSRATGRCLEVEMSQDA | 2.26
FTQSGPIVSRATGRCLEVEMSYDA | 2.62
FTQSGPIVSRATGRCLEVEMSLDA | 1.95
FTQSGPIVSRATGRCLEVEMSCDA | 2.56
FTQSGPIVSRATGRCLEVEMSGDA | 2.7
FTQSGPIVSRATGRCLEVEMSKDI | 1.89
FTQSGPIVSRATGRCLEVEMSKDV | 1.68
FTQSGPIVSRATGRCLEVEMSKDP | 3.19

Variant | protein stability index
FTQSGPIVSRATGRCLEVEMSKDN | 2.78
FTQSGPIVSRATGRCLEVEMSKDD | 2.51
FTQSGPIVSRATGRCLEVEMSKDL | 2.35
FTQSGPIVSRATGRCLEVEMSKDF | 1.34
FTQSGPIVSRATGRCLEVEMSKDC | 2.34
FTQSGPIVSRATGRCLEVEMSKDM | 1.51
FTQSGPIVSRATGRCLEVEMSKDH | 2.43
FTQSGPIVSRATGRCLEVEMSKDY | 1.75
FTQSGPIVSRATGRCLEVEMSKDE | 2.64
FTQSGPIVSRATGRCLEVEMSKDR | 2.2
FTQSGPIVSRATGRCLEVEMSKDT | 2.3
FTQSGPIVSRATGRCLEVEMSKKA | 1.84
FTQSGPIVSRATGRCLEVEMSKCA | 1.51
FTQSGPIVSRATGRCLEVEMSKEA | 2.44
FTQSGPIVSRATGRCLEVEMSKSA | 2.67
FTQSGPIVSRATGRCLEVEMSKLA | 2.07
FTQSGPIVSRATGRCLEVEMSKGA | 1.79
FTQSGPIVSRATGRCLEVEMSKIA | 1.57
FTQSGPIVSRATGRCLEVEMSKHA | 2.3
FTQSGPIVSRATGRCLEVEMSKYA | 2.52
FTQSGPIVSRATGRCLEVEMSKNA | 2.42
FTQSGPIVSRATGRCLEVEMSKPA | 1.92
FTQSGPIVSRATGRCLEVEMSKVA | 2.02
FTQSGPIVSRATGRCLEVEMSKTA | 1.84
FTQSGPIVSRATGRCLEVEMSKQA | 1.95
